# Laboratory results from patent US20240376149A1, “Novel Modulators of GABABR1a” (VIB VZW, priority 2021, published 2024).
# *1 amine or outer side, *2 acyl side, *3 side chain or, on linkers, in order; H or OH if unused. Where a SMILES comes first, the peptide text is derived from it. Where no end group is shown, it is not given here. [ ]: non-standard residue; d: D form. The star is where a group is joined. X1 = CCn1cc(C[C@H](N[*:1])C(=O)[*:2])c2ccccc21; X3 = COc1ccc(C[C@H](N[*:1])C(=O)[*:2])cc1C; X4 = O=C([C@H](Cc1ccc(CO)cc1)N[*:1])[*:2]; Piperazinyl(4-Me) = CN1CCN(*)CC1; Ac4c = NC1(C(=O)O)CCC1
# B1: VIB-0068912 (peptide)
# peptide: DIXWS
# modifications: D-aspartic acid at position 1; position 3 (X) is the non-natural residue F86 = 1-chloro-4-methylbenzene
# notes: Peptidomimetic 5-mer; X marks the non-natural residue
# B2: VIB-0068909 (peptide)
# peptide: DIXWS
# modifications: D-aspartic acid at position 1; position 3 (X) is the non-natural residue F57 = 4-methylaniline
# notes: as for B1
# B3: VIB-0068896 (peptide)
# peptide: DIXWS
# modifications: D-aspartic acid at position 1; position 3 (X) is the non-natural residue F44 = (4-methylphenyl)methanol
# notes: as for B1
# Target: T1, Sushi domain 1 of the human GABA B1a receptor (human, UniProt Q9UBS5 26-96)
# T1 construct: Purified recombinant protein from E. coli; also called SD1; GABABR1a-SD1
# Assay: FP competition vs FITC-9mer on purified SD1
# Details: not given
# Method: (§1) To screen for GABABR1a binders using unlabelled test compounds, the assay was turned into a competition assay using FITC-9mer. […] To validate this inhibitor assay, the IC50 values were determined of the 17-mer, 9-mer, 5-mer as well as those from 3 negative controls: 10-mer, scrambled 17-mer and a scrambled 9-mer (FIG. 2).
# Based on structural information of DIYWS-SD1 and DIWWS-SD1 co-crystals, 48 peptides containing non-natural residues were manually designed and checked for binding to the GABABR1a SD1 in the FP assay at a concentration of 50 μM. These non-natural peptides were categorized based on the IC50 values obtained in the FP assay (Table 3). […] The listed non-natural 5-mers all share D-aspartate was on position 1 (residue position 4 of the 9-mer), L-isoleucine on position 2 (residue position 5 of the 9-mer), L-tryptophane on position 4 (residue position 7 of the 9-mer) and L-serine on position 5 (residue position 8 of the 9-mer), while position 3 is selected from the list consisting of L-tyrosine, isoethylmethyl-benzene, 6-chloro-3-methyl-1H-indole, methylcyclohexane, ethylcyclohexane, 2-naphthalene, ethylbenzene, 1,1-difluoro-4-cyclohexyl, 4-methyl-1-methoxy-2-methylbenzene, 1-chloro-4-methylbenzene, 4-methylphenyl-methanol, 3-methylbenzoic acid and 4-methylaniline.
# T1 sequence (Q9UBS5 26-96 limits assumed): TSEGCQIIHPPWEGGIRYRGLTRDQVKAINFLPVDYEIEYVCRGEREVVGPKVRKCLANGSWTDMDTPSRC
Molecule,% inhibition 50 µM,IC50
B1,66.2%,32.7 µM
B2,44.2%,88.3 µM
"[dD]IYWS-{N‑(1,3,4-thiadiazol-2-yl)amide} (also called VIB-0068870-001; dIYWS*) [VIB-0068870]",34.6%,16.5 µM
[dD]IYWS (also called dIYWS) [VIB-0068902],76.8%,–
"{(1-aminocyclobutyl)N‑methanone}-[dD]IYWS (not fully specified, also called *dIYWS) [VIB-0068884]",41.5%,100 µM
[dD]IYWS-{N‑(2-(4-methylpiperazin-1-yl)-2-oxoethyl)amide} (also called dIYWS**) [VIB-0068875],41.8%,71.2 µM
[dD]IYYS (also called dIYYS) [VIB-0068914],72.4%,–
B3,56.6%,48 µM

# Target: T2, GABABR1a-SD1 (SD1-FITC-9mer complex) (Homo sapiens, UniProt Q9UBS5)
# T2 construct: The synthetic gene encoding for residues 26-96 of the Sushi1 protein was cloned into a pFloat-SUMO vector; His-SUMO (with 3C protease site) (N, cleaved yes); made in house; host or cells: E. coli BL21(DE3)
# Assay: Fluorescence polarization (FP) competition assay with FITC-9mer
# Assay type: binding
# Details: competition with FITC-9mer for SD1
# Method: Intrigued by the surprising results of the 5-mer, it was decided to set up a medium- to high-throughput screen to optimize the 5-mer sequence. Several assays were tested to find a reproducible, robust and cost-effective assay that is also suitable for high-throughput screening. A fluorescence polarization (FP) assay was selected. FP measurements are well-known for receptor binding assays. The assay is based on the rotational movement of fluorescently labelled molecules in solution. […] The FP assay was optimized using the FITC labelled sAPP 9-mer (FIG. 1).
# as §1
# (§2) To determine if the peptides of this application were able to disrupt the SD1-9-mer complex, each peptide (in single point or dose-response curve) tested was incubate with SD1 protein for 1 h at RT. After this initially incubation, FITC-9mer was added to the previous mix and incubated during 2 h at RT. The signal intensity was measure in an appropriate plate reader using the following settings: Number of flashes per well: 200; Excitation: F482-16; Dichroic filter: FLP 504; Emission A F530-40; Gain A: 738, Gain B: 736. The assay was conducted in a 384-well plate.
row,Molecule,IC50
1,"CC[C@H](C)[C@H](NC(=O)[C@H](N)CC(=O)O)C(=O)N[C@@H](Cc1ccc(O)cc1)C(=O)N[C@@H](Cc1c[nH]c2ccccc12)C(=O)N[C@@H](CO)C(=O)O [VIB-0068902, dIYWS]",11.6 µM
2,"CC[C@H](C)[C@H](NC(=O)[C@H](N)CC(=O)O)C(=O)N[C@@H](Cc1ccc(O)cc1)C(=O)N[C@@H](Cc1ccc(O)cc1)C(=O)N[C@@H](CO)C(=O)O [VIB-0068914, dIYYS] (H-[dD]IYYS-OH; N-terminus and C-terminus assumed)",25.1 µM

# Same assay, conditions: peptide at 50 μM; inhibition of FITC-9mer binding to SD1
row,Molecule,inhibition at 50 µM
1,CC[C@H](C)[C@H](NC(=O)[C@H](N)CC(=O)O)C(=O)N[C@@H](Cc1ccc(N)cc1)C(=O)N[C@@H](Cc1c[nH]c2ccccc12)C(=O)N[C@@H](CO)C(=O)O [VIB-0068909],44.2%
2,CC[C@H](C)[C@H](NC(=O)[C@@H](CC(=O)O)NC(=O)C1(N)CCC1)C(=O)N[C@@H](Cc1ccc(O)cc1)C(=O)N[C@@H](Cc1c[nH]c2ccccc12)C(=O)N[C@@H](CO)C(=O)O [VIB-0068884] (H-[Ac4c][dD]IYWS-OH; C-terminus assumed),41.5%
3,CC[C@H](C)[C@H](NC(=O)[C@H](N)CC(=O)O)C(=O)N[C@@H](Cc1ccc(O)cc1)C(=O)N[C@@H](Cc1c[nH]c2ccccc12)C(=O)N[C@@H](CO)C(=O)NCC(=O)N1CCN(C)CC1 [VIB-0068875] (H-[dD]IYWSG-{Piperazinyl(4-Me)}; N-terminus assumed),41.8%
4,CC[C@H](C)[C@H](NC(=O)[C@H](N)CC(=O)O)C(=O)N[C@@H](Cc1ccc(CO)cc1)C(=O)N[C@@H](Cc1c[nH]c2ccccc12)C(=O)N[C@@H](CO)C(=O)O [VIB-0068896] (H-[dD]I[X4]WS-OH; N-terminus and C-terminus assumed),56.6%
5,CC[C@H](C)[C@H](NC(=O)[C@H](N)CC(=O)O)C(=O)N[C@@H](Cc1cn(CC)c2ccccc12)C(=O)N[C@@H](Cc1c[nH]c2ccccc12)C(=O)N[C@@H](CO)C(=O)O [VIB-0068904] (H-[dD]I[X1]WS-OH; N-terminus and C-terminus assumed),26.7%
6,CC[C@H](C)[C@H](NC(=O)[C@H](N)CC(=O)O)C(=O)N[C@@H](Cc1ccc(O)cc1)C(=O)N[C@@H](Cc1c[nH]c2ccccc12)C(=O)N[C@@H](CO)C(=O)Nc1nncs1 [VIB-0068870],34.6%
7,"CC[C@H](C)[C@H](NC(=O)[C@H](N)CC(=O)O)C(=O)N[C@@H](Cc1ccc(O)cc1)C(=O)N[C@@H](Cc1c[nH]c2ccccc12)C(=O)N[C@@H](CO)C(=O)O [VIB-0068902, dIYWS]",76.8%
8,CC[C@H](C)[C@H](NC(=O)[C@H](N)CC(=O)O)C(=O)N[C@@H](Cc1ccc(Cl)cc1)C(=O)N[C@@H](Cc1c[nH]c2ccccc12)C(=O)N[C@@H](CO)C(=O)O [VIB-0068912],66.2%
9,CC[C@H](C)[C@H](NC(=O)[C@H](N)CC(=O)O)C(=O)N[C@@H](Cc1ccc(OC)c(C)c1)C(=O)N[C@@H](Cc1c[nH]c2ccccc12)C(=O)N[C@@H](CO)C(=O)O [VIB-0068906] (H-[dD]I[X3]WS-OH; N-terminus and C-terminus assumed),70.8%
10,PVHMS [VIB_P44],-7%
11,"CC[C@H](C)[C@H](NC(=O)[C@H](N)CC(=O)O)C(=O)N[C@@H](Cc1ccc(O)cc1)C(=O)N[C@@H](Cc1ccc(O)cc1)C(=O)N[C@@H](CO)C(=O)O [VIB-0068914, dIYYS] (H-[dD]IYYS-OH; N-terminus and C-terminus assumed)",72.4%
12,CC[C@H](C)[C@H](NC(=O)[C@H](N)CC(=O)O)C(=O)N[C@@H](Cc1cccc(C(=O)O)c1)C(=O)N[C@@H](Cc1c[nH]c2ccccc12)C(=O)N[C@@H](CO)C(=O)O [VIB-0068908],53.1%

# Target: T1, Sushi domain 1 of the human GABA B1a …
# Assay: ITC, peptide titrated into purified SD1
# Details: not given
# Method: The Sushi-1 protein was dialysed overnight to PBS buffer and diluted to 30 μM in the same buffer. The peptides were resuspended in PBS at a stock concentration of 3 mM and diluted further in the same buffer to 300 μM. ITC experiments were performed on a Microcal ITC200 device. Titrations comprised 26×1.5 μL injections of peptide into protein, with 90 s intervals. An initial injection of ligand (0.5 μL) was made and discarded during data analysis. The data were fitted to a single binding site model using the Microcal LLC ITC₂₀₀. Original software provided by the manufacturer.
row,Molecule,Kd
1,PIHWS [VIB_P45],38 µM
2,DVHWS [VIB_P23],25.1 µM
3,B3,7.46 µM

# Target: T1, Sushi domain 1 of the human GABA B1a …
# Assay: FP competition vs FITC-9mer on purified SD1
# Details: not given
# Remark: another data set of the same source
# Method: Next, 35 variants of the DVWWG 5-mer peptide containing natural residues were tested in the above described FP assay. The peptides were tested at a concentration of 50 μM.
# as §2
Molecule,% inhibition 50 µM,IC50
PVHMS [VIB_P44],-7%,186 µM
NIWWG [VIB_P65],41.4%,–
DIHWS [VIB_P37],20%,35.6 µM
NFYWS [VIB_P58],-7%,–
NVWWS [VIB_P48],33.5%,–
DVYWG [VIB_P53],33.5%,–
GVYWS [VIB_P60],47.5%,–
DIWWG (also called VIB_29) [VIB_P29],75%,16.5 µM
DIFWS [VIB_P35],55.9%,–
NIYWG [VIB_P68],15.9%,–
NVWWG [VIB_P56],17.9%,–
PIYWS [VIB_P49],25%,–
DVWWS [VIB_P39],85.5%,14 µM
"DIYWS (not fully specified, also called VIB_43; DIYWS) [VIB_P43]",48.6%,21.2 µM
GIYWS [VIB_P47],53.4%,–
DIYWG [VIB_P42],47.9%,–
NIYWS [VIB_P63],19.4%,–
SVYWS [VIB_P41],5.28%,–
NIWWS [VIB_P66],66.4%,–
